Assay results as given in article PMC11686404.

Target: native BnFMO, flavin monooxygenase from Bacillus niacini (Bacillus niacini)
Assay: cryo-EM structure

stoichiometry N: 3
Substance: native BnFMO, flavin monooxygenase from Bacillus niacini (enzyme)
